Data set [1] addresses T1, KdpE (Mycobacterium smegmatis) (UniProt A0R399).
T1 sequence: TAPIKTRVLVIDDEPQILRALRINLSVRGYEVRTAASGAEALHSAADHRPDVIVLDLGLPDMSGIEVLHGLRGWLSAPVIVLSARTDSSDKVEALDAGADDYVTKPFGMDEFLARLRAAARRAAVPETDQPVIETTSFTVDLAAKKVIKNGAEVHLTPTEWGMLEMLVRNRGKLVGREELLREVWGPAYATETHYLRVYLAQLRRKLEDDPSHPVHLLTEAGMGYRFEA
As to the kind of experiment: DNase I footprinting. The following applies: 10 mM Tris pH 7.5 (20 C), 100 mM KCl, 1 mM EDTA, 0.1 mM DTT, 5% glycerol, 0.010 mg/mL BSA, 0.5 mM Na2ATP; 25 C, 1 h; 6% native PAGE in 0.25x TBE.

The target of data set [2] is T1, KdpE (Mycobacterium smegmatis). As to the kind of experiment: EMSA. The following applies: 10 mM Tris pH 7.5 (20 C), 100 mM KCl, 1 mM EDTA, 0.1 mM DTT, 5% glycerol, 0.010 mg/mL BSA, 0.5 mM Na2ATP; 25 C, 1 h; 6% native PAGE in 0.25x TBE.
The target is the same in data set [3]. As to the kind of experiment: competition. As to conditions: 10 mM Tris pH 7.5 (20 C), 100 mM KCl, 1 mM EDTA, 0.1 mM DTT, 5% glycerol, 0.010 mg/mL BSA, 0.5 mM Na2ATP; 25 C, 1 h; 6% native PAGE in 0.25x TBE.
In data set [4] the target is T2, KdpE (Mycobacterium smegmatis, UniProt A0R399 2-230).
T2 sequence: T1 sequence
Nature of the data set: EMSA; 0.5 mM ATP; 10 mM Tris pH 7.5 (20 C), 100 mM KCl, 1 mM EDTA, 0.1 mM DTT, 5% glycerol, 0.010 mg/mL BSA, 0.5 mM Na2ATP; 25 C, 1 h; 6% native PAGE in 0.25x TBE. The following applies: protein: recombinant; tags: 6xHis (pET28a); chain copies: 2; blunt. In general terms: In EMSA bound probe runs differently from free probe, usually more slowly.

Take “CCCGAGGCGCCGGCGCCCGGCCGAGCAGGTGCGTCGGGTGTCGGCAGGCGCGGCAGCCCGCGGAGCAAGCAGGGACATGAGCTTCGTCGAGTGGGTCACCCCTCGAACATCCATCAACCGAGCCATGACGACGAGTGTCCTGGCGGAGTCTTGGCCGCTGCTGTACAAACCTTGACGCCGCACTGACAGTCCGTCGGGAACCGCCTGTGCGCCGGCTTCGAACAAACGGTGTCAAATACGGCCGCCGCACCGTAAAGAAACCATCAAGGCCGCGTTCGCGGTCCTGAACTGGGCAGATCC (double strand) [PkdpF 300-bp probe]”: the binding entry in data set [1], in data set [2] and in data set [3] was “binds” throughout.

B1: FPC-28 (dsDNA)
DNA 1: CCGTAAAGAAACCATCAAGGCCGCGTTC
DNA 2: GAACGCGGCCTTGATGGTTTCTTTACGG
On to B1, for which the binding result in data set [4] is reported as “binds”.

B2: FPC-18 (dsDNA)
DNA 1: AAGAAACCATCAAGGCCG
DNA 2: CGGCCTTGATGGTTTCTT
Consider B2, for which the binding result in data set [4] is recorded as “no binding”.

B3: FPC-22 (dsDNA)
DNA 1: CCGTAAAGAAACCATCAAGGCC
DNA 2: GGCCTTGATGGTTTCTTTACGG
B3: in data set [4], the binding result is given as “binds”.

B4: FPC-33 (dsDNA)
DNA 1: ACCGTAAAGAAACCATCAAGGCCGCGTTCGCGG
DNA 2: CCGCGAACGCGGCCTTGATGGTTTCTTTACGGT
With B4, the binding result in data set [4] is recorded as “binds”.

Values taken from publication PMC5401905, “Regulation of Inducible Potassium Transporter KdpFABC by the KdpD/KdpE Two-Component System in Mycobacterium smegmatis”.
